Measurements published in publication PMC8796304 (ACS Central Science, 2021).
Ends that are not written are not given here.

Experiments:
[1] = target: T1, GPI-anchored myc peptide tag (Homo sapiens c-Myc epitope tag, UniProt P01106, also: GPI anchor); test: flow cytometry on cells
T1 chain: EQKLISEEDL

[2] = target: Frizzled 1 extracellular domain (Homo sapiens (assumed), UniProt Q9UP38); test: ELISA
[3] = target: Frizzled 2 extracellular domain (Homo sapiens (assumed), UniProt Q14332); test: ELISA
Frizzled 2 extracellular domain, sequence (Q14332 whole entry, looked up, the tested form may be a part): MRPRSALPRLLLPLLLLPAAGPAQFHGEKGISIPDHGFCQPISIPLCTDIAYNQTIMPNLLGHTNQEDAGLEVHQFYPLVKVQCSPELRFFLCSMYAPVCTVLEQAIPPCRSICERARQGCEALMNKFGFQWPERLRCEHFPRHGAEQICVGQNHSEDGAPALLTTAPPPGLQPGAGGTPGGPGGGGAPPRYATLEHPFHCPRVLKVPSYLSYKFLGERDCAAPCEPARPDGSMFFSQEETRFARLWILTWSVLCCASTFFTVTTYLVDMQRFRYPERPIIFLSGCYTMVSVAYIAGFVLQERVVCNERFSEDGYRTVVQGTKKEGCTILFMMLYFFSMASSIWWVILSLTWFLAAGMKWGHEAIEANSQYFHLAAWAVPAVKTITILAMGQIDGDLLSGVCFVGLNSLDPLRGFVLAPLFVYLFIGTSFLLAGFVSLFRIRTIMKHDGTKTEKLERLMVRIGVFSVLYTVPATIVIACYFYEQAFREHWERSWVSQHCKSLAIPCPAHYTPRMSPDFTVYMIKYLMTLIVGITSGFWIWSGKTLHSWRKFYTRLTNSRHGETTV

[4] = target: human Frizzled-7 on Fzd7+myc+ CHO cells (Homo sapiens, UniProt O75084); test: flow cytometry on cells
[5] = target: T2, Frizzled-7/Fc chimera protein (Homo sapiens, UniProt O75084); test: BLI
[6] = target: T2, Frizzled-7/Fc chimera protein; test: ELISA

Frizzled 1 extracellular domain, sequence (Q9UP38 whole entry, looked up, the tested form may be a part): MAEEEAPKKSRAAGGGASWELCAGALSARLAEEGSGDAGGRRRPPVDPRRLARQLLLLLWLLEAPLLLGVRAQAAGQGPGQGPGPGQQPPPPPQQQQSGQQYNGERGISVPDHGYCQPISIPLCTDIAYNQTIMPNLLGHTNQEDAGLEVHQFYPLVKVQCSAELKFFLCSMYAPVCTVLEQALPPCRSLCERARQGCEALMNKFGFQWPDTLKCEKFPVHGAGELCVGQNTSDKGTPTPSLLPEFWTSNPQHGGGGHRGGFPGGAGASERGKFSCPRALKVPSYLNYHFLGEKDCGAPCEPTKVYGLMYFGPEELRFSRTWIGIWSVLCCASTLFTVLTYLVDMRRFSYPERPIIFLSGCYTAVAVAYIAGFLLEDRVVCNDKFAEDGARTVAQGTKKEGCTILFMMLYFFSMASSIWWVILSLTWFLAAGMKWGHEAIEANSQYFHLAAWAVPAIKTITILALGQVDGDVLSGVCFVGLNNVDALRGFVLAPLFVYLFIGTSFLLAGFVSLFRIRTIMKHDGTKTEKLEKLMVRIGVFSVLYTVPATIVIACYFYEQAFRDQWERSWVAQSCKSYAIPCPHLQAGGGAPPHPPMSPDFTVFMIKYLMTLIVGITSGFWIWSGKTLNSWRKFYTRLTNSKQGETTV

Binder	binding result [1]	binding result [2]	binding result [3]	EC50 [4]	Kd [5]	EC50 [6]
ML7 (antibody, V domains shown) VH: EVQLVESGGGLVQPGGSLRLSCAASGFNIYYYSMHWVRQAPGKGLEWVASISSYYGYTYYADSVKGRFTISADTSKNTAYLQMNSLRAEDTAVYYCARSWGYGGSSSYALDYWGQGTLVTVSS VL: DIQMTQSPSSLSASVGDRVTITCRASQSVSSAVAWYQQKPGKAPKLLIYSASSLYSGVPSRFSGSRSGTDFTLTISSLQPEDFATYYCQQVGGGPITFGQGTKVEIK	no binding (tested: 50 nM)	binds	binds	< 10 nM	0.448 ± 0.053 nM	< 10 nM
ML9 (antibody, V domains shown) VH: EVQLVESGGGLVQPGGSLRLSCAASGFNIYYYSMHWVRQAPGKGLEWVASISSYYGYTYYADSVKGRFTISADTSKNTAYLQMNSLRAEDTAVYYCARSWGYGGSSSYALDYWGQGTLVTVSS VL: DIQMTQSPSSLSASVGDRVTITCRASQSVSSAVAWYQQKPGKAPKLLIYSASSLYSGVPSRFSGSRSGTDFTLTISSLQPEDFATYYCQQGWWGYYSLITFGQGTKVEIK	no binding (tested: 50 nM)				0.292 ± 0.066 nM	
ML8 (antibody, V domains shown) VH: EVQLVESGGGLVQPGGSLRLSCAASGFNIYYYSMHWVRQAPGKGLEWVASISSYYGYTYYADSVKGRFTISADTSKNTAYLQMNSLRAEDTAVYYCARSWGYGGSSSYALDYWGQGTLVTVSS VL: DIQMTQSPSSLSASVGDRVTITCRASQSVSSAVAWYQQKPGKAPKLLIYSASSLYSGVPSRFSGSRSGTDFTLTISSLQPEDFATYYCQQYAYPVYFLITFGQGTKVEIK	no binding (tested: 50 nM)			< 10 nM	4.98 ± 0.28 nM	< 10 nM
